# Data reported in patent US20200165354A1 (WUXI BIOLOGICS IRELAND, published 2020).
# B1: 2.12.12.4 (antibody, V domains shown)
# VH: EVQLQQSGPELVKPGASVKMSCEASGYTFTNYVMHWVKQKPGQGLEWIGYINPYNDYIKYNEKFKGKATLTSDKSSSTTYLEVSSLTSEDSAVYYCGRQRYYGYRPYYAMDYWGQGTSVTVSS
# VL: NIVLTQSPASLAVSLGQRATISCRASESVDGYGNVFMHWYQQKPGQPPKLLIYLASNLESGVPDRFSGSGSRTDFTLTIDPVEADDAATYYCQQNNKDPWTFGGGTKLEIK
# notes: Mouse monoclonal antibody purified from hybridoma supernatant; also called parental murine antibody
# B2: 2.6.6 (antibody, V domains shown)
# VH: QVQLQQPGAEVVKPGASVTVSCKASGYTFTSYWIHWVMQRPGQGLEWIGELNPSDGRTNYNEKFKNKATLTVDTSSSTVYMQLSSLTSEDSAVYYCARSNFYGSSSFANWGQGTLVTVSA
# VL: EILLTQSPAIIAASPGEKVTITCSASSSVSYMNWYQQKPGSSPILWIYGISNLASGVPARFSGSGSGTSFSFTINNMEAEDVATYYCQQRSSYPPTFGGGTKLEIK
# notes: Mouse monoclonal antibody purified from hybridoma supernatant; also called 2.6.6 (mouse antibody)
# B3: 2.12.12.4-z4-uIgG4k (antibody, V domains shown)
# VH: QVQLVQSGAEVKKPGSSVKVSCEASGYTFTNYVMHWVRQAPGQGLEWMGYINPYNDYIKYNEKFKGKATITADKSTSTAYMELSSLRSEDTAVYYCGRQRYYGYRPYYAMDYWGQGTLVTVSS
# VL: DIVLTQSPASLAVSPGQRATITCRASESVDGYGNVFMHWYQQKPGQPPKLLIYLASNLESGVPARFSGSGSGTDFTLTINPVEANDTANYYCQQNNKDPWTFGGGTKVEIK
# notes: the chains here are derived by undoing them; Human constant region of IgG4 isotype, kappa light chain
# B4: 2.12.12.4-v2-z4-uIgG4k (antibody, V domains shown)
# VH: QVQLVQSGAEVKKPGSSVKVSCEASGYTFTNYVMHWVRQAPGQGLEWMGYINPYNDYIKYNEKFKGKATITADKSTSTAYMELSSLRSEDTAVYYCGRQRYYGYRPYYAMDYWGQGTLVTVSS
# VL: DIVLTQSPASLAVSPGQRATITCRASESVEGYGNVFMHWYQQKPGQPPKLLIYLASNLESGVPARFSGSGSGTDFTLTINPVEADDTANYYCQQNNKDPWTFGGGTKVEIK
# notes: Engineered humanized antibody with a human constant region of IgG4 isotype, kappa light chain; also called engineered antibody lead
# B5: 2.6.6-z4-uIgG1k (antibody, V domains shown)
# VH: QVQLVQSGAEVKKPGASVKVSCKASGYTFTSYWIHWVRQAPGQGLEWMGELNPSDGRTNYNEKFKNKATMTVDTSTSTVYMELSSLRSEDTAVYYCARSNFYGSSSFANWGQGTLVTVSS
# VL: DIQMTQSPSSLSASVGDRVTITCSASSSVSYMNWYQQKPGKAPKLLIYGISNLASGVPSRFSGSGSGTDFTFTISSLQPEDIATYYCQQRSSYPPTFGGGTKVEIK
# notes: Humanized antibody of 2.6.6 with a human constant region of IgG1 isotype, kappa light chain
# Legend:
# [1] = target: human PCSK9 (construct not stated) (human) (UniProt Q8NBP7); test: cell-based or functional assay
# [2] = target: human PCSK9 with C-terminal 6-His tag, biotin-labelled (PCSK9-His-biotin) (human) (UniProt Q8NBP7); test: ELISA binding to human PCSK9
# [3] = target: human PCSK9 with C-terminal murine Fc, biotin-labelled (PCSK9-mFc-biotin) (human) (UniProt Q8NBP7); test: blocking ELISA, binding of PCSK9 to LDL-R
# [4] = target: T1, human PCSK9 (construct not stated) (human, UniProt Q8NBP7 31-692, limits assumed); test: cell-based or functional assay
# [5] = target: T2, rhesus PCSK9-His (Sino Biological) (rhesus monkey, UniProt A8T666 31-692, limits assumed); test: ELISA, rhesus PCSK9-His captured on anti-His antibody
# T2 construct: also called rhesus monkey PCSK9; monkey PCSK9
# Protocol: ELISA plates (Nunc) were coated with anti-His antibody (Genscript) at 1 μg/ml overnight at 4° C. After blocking and washing, 1 μg/ml rhesus PCSK9-His (Sino Biological) was added and incubated for 1 h. The antibody samples were added to the plates and incubate at room temperature for 1 h. The plates were then washed and subsequently incubated with secondary antibody goat anti mouse-IgG-Fc-HRP (Bethyl) for 45 min. After washing, TMB substrate was added and the interaction was stopped by 2M HCl. The absorbance at 450 nm was read using a microplate reader (Molecular Device).
# Binding to monkey PCSK9: the affinity of selected antibodies binding to rhesus monkey PCSK9 was measured by ELISA (see FIG. 4).
# [6] = target: T3, human PCSK9 with C-terminal 6-His tag, biotin-labelled (PCSK9-His-biotin) (human, UniProt Q8NBP7 31-692, biotin-labelled, site not stated); test: ELISA, purified antibody on PCSK9-His-biotin captured on streptavidin
# T3 construct: Made in HEK293, purified on Ni column
# Protocol: Binding assay by ELISA: Plates (Nunc) were coated with Streptavidin at 1 μg/ml overnight at 4° C. After blocking and washing, 250 ng/ml PCSK9-His-biotin was added and incubated for 1 h. Then hybridoma supernatants were transferred to the plates and incubate at room temperature for 1 h. The plates were then washed and subsequently incubated with secondary antibody goat anti mouse-IgG-Fc-HRP (Bethyl) for 1 h. After washing, TMB substrate was added and the interaction was stopped by 2M HCl. The absorbance at 450 nm was read using a microplate reader (Molecular Device).
# (§1) Binding and blocking activities were confirmed using purified antibodies (FIGS. 1 and 2).
# [7] = target: T1, human PCSK9 (construct not stated); test: SPR Biacore T200, antibody captured by anti-Fc antibody, PCSK9 as analyte, 1:1 fit
# Protocol: (§2) Antibody binding affinity to human and rhesus PCSK9 was detected by SPR assay using Biacore T200 (GE). Each antibody was captured on anti-murine IgG Fc antibody (GE) or anti-human IgG Fc antibody (Genway) immobilized CM5 sensor chip (GE). Human or rhesus PCSK9 at different concentrations were injected over the sensor chip at a flow rate of […] for an association phase of 180 s, followed by 1200 s dissociation. The chip was regenerated by 2 M MgCl₂ after each binding cycle.
# (§3) The sensorgrams for blank surface and buffer channel are subtracted from the test sensorgrams. The experimental data was fitted by 1:1 model using Langmiur analysis. Molecular weight of 85 KDa was used to calculate the molar concentration of analyte.
# Kinetic affinity by SPR: the affinities of selected clones binding to human PCSK9 were measured by SPR assay.
# [8] = target: T4, human PCSK9 with C-terminal murine Fc, biotin-labelled (PCSK9-mFc-biotin) (human, UniProt Q8NBP7 31-692, limits assumed, biotin-labelled, site not stated); test: competition ELISA, antibody premixed with PCSK9-mFc-biotin, binding to coated LDL-R
# T4 construct: not shown: murine Fc (mFc) fused at the C-terminus
# Protocol: Blocking assay by ELISA: Plates (Nunc) were coated with LDL-R overnight at 4° C. Hybridoma supernatants were mixed with 250 ng/ml PCSK9-mFc-biotin and incubated at 4° C. overnight. After blocking and washing, the mixture were added to the plates and incubated for 1 h. The plates were then washed and subsequently incubated with streptavidin-HRP. After washing, TMB substrate was added and the interaction was stopped by 2M HCl. The absorbance at 450 nm was read using a microplate reader (Molecular Device).
# as §1
# [9] = target: T3, human PCSK9 with C-terminal 6-His tag, …; test: ELISA binding to human PCSK9
# [10] = target: T4, human PCSK9 with C-terminal murine Fc, …; test: blocking ELISA, binding of PCSK9 to LDL-R
# [11] = target: T1, human PCSK9 (construct not stated); test: SPR Biacore, antibody captured, human PCSK9 as analyte
# Protocol: as §2, §3
# [12] = target: T5, rhesus (monkey) PCSK9, SPR analyte, construct not stated (rhesus monkey, UniProt A8T666 31-692, limits assumed); test: SPR Biacore, antibody captured, monkey PCSK9 as analyte
# T5 construct: also called rhesus PCSK9
# Protocol: as §2, §3
# [13] = target: T1, human PCSK9 (construct not stated); test: ELISA, biotin-labelled PCSK9 on a streptavidin plate, antibody in human serum, 0 days at 37 C, goat anti-human-HRP, OD450
# Protocol: (§4) After incubation at 37° C., samples were rapidly frozen in dry-ice-ethanol bath and kept at −80° C. The samples were rapidly thawed before stability test. The plates were coated with streptavidin in Na₂CO₃/NaHCO₃ (pH 9.2) buffer at 4° C. overnight. The plates were washed with 0.1% Tween-PBS once before being blocked with 2% BSA/PBS. Biotin-labeled PCSK9 was added and incubated for 1 hr. After washing, then diluted serum samples were transferred to the plates and incubated for 1 hr at room temperature. Goat anti-human-HRP antibody were added to the wells and incubated for 1 hr. After washing, TMB substrate was added and the interaction was stopped by 2 M HCl. The absorbance at 450 nm was read using a microplate reader (Molecular Device).
# (§5) The antibody binding to human PCSK9 was tested by ELISA after incubation in human serum at 37° C.
# [14] = target: T1, human PCSK9 (construct not stated); test: ELISA, biotin-labelled PCSK9 on a streptavidin plate, antibody in human serum, 3 days at 37 C, goat anti-human-HRP, OD450
# Protocol: as §4, §5
# [15] = target: T1, human PCSK9 (construct not stated); test: SPR, human PCSK9
# [16] = target: T5, rhesus (monkey) PCSK9, SPR analyte, …; test: SPR, monkey PCSK9
# Protocol: as §2, §3
# The binding activity of engineered antibody was evaluated by SPR affinity test.
# T5 sequence (A8T666 31-692 limits assumed): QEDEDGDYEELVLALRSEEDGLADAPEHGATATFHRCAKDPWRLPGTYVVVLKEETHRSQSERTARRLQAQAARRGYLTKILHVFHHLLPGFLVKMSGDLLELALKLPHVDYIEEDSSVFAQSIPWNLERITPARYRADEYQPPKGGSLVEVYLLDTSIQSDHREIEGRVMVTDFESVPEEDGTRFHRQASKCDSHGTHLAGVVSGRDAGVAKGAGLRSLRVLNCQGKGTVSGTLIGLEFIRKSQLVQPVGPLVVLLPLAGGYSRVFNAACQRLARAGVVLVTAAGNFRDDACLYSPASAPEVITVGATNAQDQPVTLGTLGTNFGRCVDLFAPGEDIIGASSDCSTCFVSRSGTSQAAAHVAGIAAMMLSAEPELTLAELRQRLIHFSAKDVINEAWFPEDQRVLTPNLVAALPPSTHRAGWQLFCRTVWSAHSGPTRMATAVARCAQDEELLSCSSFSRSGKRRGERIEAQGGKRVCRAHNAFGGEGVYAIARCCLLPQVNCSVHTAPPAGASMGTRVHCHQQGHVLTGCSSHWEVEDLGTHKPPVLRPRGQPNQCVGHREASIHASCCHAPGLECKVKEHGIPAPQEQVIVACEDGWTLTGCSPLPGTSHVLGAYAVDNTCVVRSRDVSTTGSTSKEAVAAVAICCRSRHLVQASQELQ
# T2 sequence (A8T666 31-692 limits assumed): as above
Molecule,"IC50 (nM), LDL-uptake assay in HepG2 cells [4]",Kd [5],EC50 [6],Kd [7],koff [7],kon [7],IC50 [8],Kd [11],koff [11],kon [11],Kd [12],koff [12],kon [12],other results
Repatha (evolocumab) (antibody),,,,,,,,,,,,,,"IC50 (nM), LDL-uptake assay, HepG2 [1]: 77.6 nM; IC50 (nM), LDL-uptake assay, Huh-7 [1]: 98.2 nM; EC50 [2]: 0.038 nM; IC50 [3]: 2.1 nM"
B1,72.5 nM,0.5 nM,0.14 nM,0.0531 nM,5.43e-05 s⁻¹,1.02e+06 M⁻¹ s⁻¹,3 nM,,,,,,,
B2,130 nM,0.6 nM,0.14 nM,1.08 nM,0.000148 s⁻¹,137000 M⁻¹ s⁻¹,8.5 nM,,,,,,,
B3,,,,,,,,0.0271 nM,2.67e-05 s⁻¹,984000 M⁻¹ s⁻¹,0.379 nM,0.000303 s⁻¹,800000 M⁻¹ s⁻¹,EC50 [9]: 0.026 nM; IC50 [10]: 1.9 nM; EC50 (read off the curve) [13]: ~0.06 nM; EC50 (read off the curve) [14]: ~0.07 nM
B4,,,,,,,,,,,,,,Kd [15]: 0.0423 nM; koff [15]: 4.32e-05 s⁻¹; kon [15]: 1.02e+06 M⁻¹ s⁻¹; Kd [16]: 0.522 nM; koff [16]: 0.000291 s⁻¹; kon [16]: 558000 M⁻¹ s⁻¹
B5,,,,,,,,2.11 nM,4.69e-05 s⁻¹,22200 M⁻¹ s⁻¹,0.19 nM,3.78e-06 s⁻¹,19900 M⁻¹ s⁻¹,
